Drawing on publication doi:10.1101/812115, this text covers stoichiometry N (GRN per TDP-43CTD) for 2 substances.

Test [1] addresses TDP-43 C-terminal domain (TDP-43CTD) (267-414) (UniProt Q13148). In words: co-sedimentation.
For test [2] the target is unchanged. In words: co-sedimentation. The source holds these as a separate data set.

Read-outs that look alike come from different tables or passages of the source.

Chain of UniProt Q13148 (Q13148 267-414): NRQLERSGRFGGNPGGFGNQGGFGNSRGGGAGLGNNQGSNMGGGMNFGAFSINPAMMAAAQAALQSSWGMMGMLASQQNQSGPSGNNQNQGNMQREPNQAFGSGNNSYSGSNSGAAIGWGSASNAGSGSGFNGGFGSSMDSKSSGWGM

In test [1], “rGRN-5 (granulin-5, fully reduced) (domain or fragment)” had a stoichiometry N (GRN per TDP-43CTD) of 1.1.
On to “GRN-5 (granulin-5, oxidized) (domain or fragment)”, for which the stoichiometry N (GRN per TDP-43CTD) in test [1] was found to be 0.75; in test [2] it was 0.73.
